The data set is described as follows: soluble on expression in E. coli; label from the status in PepcDB or PDB records.
Consider “MGAIQFQTAPKLPVTVLLAAKNEAVNLPRCLAALGPAERVIVLDSHSTDATAEIARQHGAEVAQFDYRGGYPKKRQWALDTIPFGTPWILLLDADEVVPEDLWKEIGNVTRQPDADAYLITKGFHFLGRKFKHGGFSHSAVLLFKTGMARFEKLFDDDLNGLDMEIHERVVVDGRIGKLKTPLVHEDFKGLEAYITRHNKYSTWEAKVRHHYLTTGRYGEQTIKPRLFGNSQERRRFLKALIIRLPFEPQIWFIYHYLLRLGFLEGRPGLIASQIRAAYIAQARAKIYELRLNTPSRLEHHHHHH”, for which the “soluble on expression in E. coli” value is recorded as “not soluble”.

Regarding “MKYVASFSGGKDSAAMLLLILEKRLLLDEIVFIDTGLEFKEIYDIIDDFEKRINFKITRIKAEKTFEEYFYTVNKQGKRKGQIWGFPYTLGAWCNSRLKLAPANKYFNSIGEHKRYIGIAFDEPSRYRRLEKNCIAPLYEAKMTEKDCLKYLEKKGFYYDIHHRFKRTGCY”, the “soluble on expression in E. coli” value was “not soluble”.

With “MAHHHHHHMPIIESDLLSLAYKAALSALLSEEIYNFGKFLNERHFTERLADSVQHAWILEWLRLCNDGKVEEFEQYAVAHKAEMAASPILSESFPSITKKVRLMALLHLVFYTPFNERTFTFDVIARRCAVDEERVEPLLLAALAQGIIMGKIDGLTQEVHITWVEPRVLSLQEVKELAVHVSRWKEKTLGLMQCMKEAAQETHN”, the “soluble on expression in E. coli” value is “not soluble”.

With “MGYVGIKIRLTDVAPQAQELFKKESLDVKENKVYLVAATLRPETMYGQTCCFVSPKIDYGVFDAGNGDYFITTERAFKNMSFQNLTPKRGYYKPLFTINGKTLIGSRIDAPYAVNKNLRVLPMETVLATKGTGVVTCVPSDSPDDFVTTRDLANKPEYYGIEKDWVQTDIVPIVHTEKYGDKCAEFLVNDLKIQSPKDSVQLANAKELAYKEGFYNGTMLIGKYKGDKVEDAKPKVKQDLIDEGLAFVYNEPELEHHHHHH”, the “soluble on expression in E. coli” value is on record as “soluble”.

In the case of “MRNQFDLELHELEQSFLGLGQLVLETASKALLALASKDKEMAELIINKDHAINQGQSAIELTCARLLALQQPQVSDLRFVISIMSSCSDLERMGDHMAGIAKAVLQLKENQLAPDEEQLHQMGKLSLSMLADLLVAFPLHQASKAISIAQKDEQIDQYYYALSKEIIGLMKDQETSIPNGTQYLYIIGHLERFADYIANICERLVYLETGELVDLN”, the “soluble on expression in E. coli” value is given as “soluble”.

On to “SKQESAAPNTPPTSQSPTPSAQFPRNDGDPQALWIFGYGSLVWRPDFAYSDSRVGFVRGYSRRFWQGDTFHRGSDKMPGRVVTLLEDHEGCTWGVAYQVQGEQVSKALKYLNVREAVLGGYDTKEVTFYPQDAPDQPLKALAYVATPQNPGYLGPAPEEAIATQILACRGFSGHNLEYLLRLADFMQLCGPQAQDEHLAAIVDAVGTMLPCFCPTEQALALV”, for which the “soluble on expression in E. coli” value was “soluble”.

Regarding “MFARLANPAHFKPLTGSHITRAAKRLYHPKVIDHYTNPRNVGSMDKSLANVGTGIVGAPACGDVIKLQIQVNDKSGIIENVKFKTFGCGSAIASSSYMTELVRGMSLDEAVKIKNTEIAKELSLPPVKLHCSMLAEDAIKAAIKDYKTKRNPSVLH”, the “soluble on expression in E. coli” value is listed as “not soluble”.

With “GHMTWEHNEFMQMTVKPFLIPADKVAHVQPGNYLDHALLVLTKTGYSAIPVLDTSYKLHGLISMTMMMDAILGLERIEFERLETMKVEEVMNRNIPRLRLDDSLMKAVGLIVNHPFVCVENDDGYFAGIFTRREVLKQLNKQLHRPNGGRKLGRKEAEQ”, the “soluble on expression in E. coli” value was “soluble”.

“MSLRVRTPSDDPVASAQIELIKQRINNIELFQNNRQAADSALRLEEGILSNAVNSLHRLREIQIQAGNPSLSEEDRKTLAVEAQALLNQLLDYANTKDSNGSYMFSGSKSLTQPVSLNLSGQYVYNGDSTQRFQAVTTSLLVAVNDTGDNVFMRIPSGNGRFAIRETLTPNTGTASVSSGSVTNEAAFVPDNYTMTFALNSQGNLVVMVSGTLSGNVIPPSGLPDDAPLYQEGSAIGFNGMEMVVSGLPKAGDSFSISPAKNESIFSTVQRMINNLNKPYTSSVEKAATQTENNQLLAQIDSALGHILSVQSDLGARLNQLETAEKANNDYLDISAATLKKLREIDPVAVATELNLQLVNLQAAQLSFTRIQGLSLFNFLEGHHHHHH”: the “soluble on expression in E. coli” value is “soluble”.

Regarding “MTIQLINESSNTAKFQQICEKWQLVHDKSASLALVLTDTRLELRKLDEAKLGAIAVNFVDGTLAHRRKFGGGRGEAIAKAVGIKGNYLPSVIDATAGLGRDAFVLAAIGCKVTLVERHPVIAALLEDGLTRAYLDAEIGEFMQQRMQLANVHNIAQLDTTTQSADVVYLDPMYPHKQKSALVKKEMRVFQHLVGADLDADQFLLPAKALATKRVVVKRPDYAPPLAEQHPSFSQKTKNHRFDIYLSPLQKRLEHHHHHH”, the “soluble on expression in E. coli” value was “soluble”.

“MVEDPYIWMENLQDNRVREIIERENKKFREFIGELSDKLFPEVWEYFSIPTVTMAKITKRGIIVSYNEKDRSIIRWLDGDVIVDSKEIEREVGDEVLLQGFTADDEGEKLAYSFSIGGADEGITRIIDLKSGEVIEEIKPSIWNILFLKDGYYFARFYRKEKTPDGVDPPAERVFWKDKEGEKMVFGEGLTSGYFMTLRKSSDDKFAMLTLNYGWNQGEIYVGPIDKPQEWRKVYSATVPVEPVDIVNGKLYILTREGRGMGKVIAVKDGEIEEVIPEGEFPLEWAVIVDDKIVAGRLVHASHRLEVYTLKGEKIEEVTFDIPGALHPLDKNNKEVLLRYISFTIPYRLYEFKDKLRIIEERKVEGKFKVEEDFVVSKDGTRIHYFIIKGEKDEKKAWVFGYGGFNIALTPRFFPQVIPFLKRGGTFVMANLRGGSEYGEEWHRAGMRENKQNVFDDFIAVLEKLKKEGYKVAAWGRSNGGLLVSATLTQRPDIMDAALIGYPVIDMLRFHKLYIGSVWIPEYGNPDDPKDREFLLKYSPYHNVDPNKKYPLTLIYTGLHDDRVHPAHALKFFMKLKEVGAPVYLRVETKSGHMGASPETRARELTDLLAFVLKSLS”: the “soluble on expression in E. coli” value is given as “soluble”.

For “RGIAVYVEHHNGNIHPVTYELIGKAREMASKIKQPVYCVFVGKDIKDKCSNLISYGVDEVFVYDEDEFKDFRIEPYSKAIENFIDKIKPTIVLVGGTTLGRSLAPRLAARFRTGLTADCTILDIQSNTDLDQIRPAFGGNIMAHINTPNNRPQFATVRYKIFSAPEKIENTTGKITLCKVEKKELKSKIKVLS”, the “soluble on expression in E. coli” value is on record as “not soluble”.

For “MGSDKIHHHHHHMKYVVVSGGVISGIGKGVLASSTGMLMKTLGLKVTSIKIDPYMNIDAGTMSPLEHGECFVLDDGGETDLDLGNYERYLGVTLTKDHNITTGKIYSHVIAKERKGDYLGKTVQIVPHLTNAIQDWIERVAKIPVDDTGMEPDVCIIELGGTVGDIESAPFVEALRQFQFKVGKENFALIHVSLVPVIHGEQKTKPTQAAIKGLRSLGLVPDMIACRCSETLDKPTIDKIAMFCHVGPEQVVNVHDVNSTYHVPLLLLEQKMIDYLHARLKLDEISLTEEEKQRGLELLSKWKATTGNFDESMETVKIALVGKYTNLKDSYLSVIKALEHSSMKCRRKLDIKWVEATDLEPEAQESNKTKFHEAWNMVSTADGILIPGGFGVRGTEGMVLAARWARENHIPFLGVCLGLQIATIEFTRSVLGRKDSHSAEFYPDIDEKNHVVVFMPEIDKETMGGSMRLGLRPTFFQNETEWSQIKKLYGDVSEVHERHRHRYEINPKMVDELENNGLIFVGKDDTGKRCEILELKNHPYYIATQYHPEYTSKVLDPSKPFLGLVAASAGILQDVIEGKYDLEAGENKFNF”, the “soluble on expression in E. coli” value was “not soluble”.

“MTGKKTLSIVGASGYAGGEFLRLALSHPYLEVKQVTSRRFAGEPVHFVHPNLRGRTNLKFVPPEKLEPADILVLALPHGVFAREFDRYSALAPVLVDLSADFRLKDPELYRRYYGEHPRPDLLGRFVYAVPELYREALKGADWIAGAGCNATATLLGLYPLLKAGVLKPTPIFVTLLISTSAGGAEASPASHHPERAGSIRVYKPTGHRHTAEVVENLPGRPEVHLTAIATDRVRGILMTAQCFVQDGWSERDVWQAYREAYAGEPFIRLVKQKKGVHRYPDPRFVQGTNYADIGFELEEDTGRLVVMTAIDNLVKGTAGHALQALNVRMGWPETLGLDFPGLHP”: the “soluble on expression in E. coli” value is “soluble”.

Take “QVRQSPQSLTVWEGETTILNCSYENSAFDYFPWYQQFPGEGPALLIAIRSVSDKKEDGRFTIFFNKREKKLSLHITDSQPGDSATYFCAATGANTGKLTFGHGTILRVHPNIQNPDPAVYQLRDSKSSDKSVCLFTDFDSQTNVSQSKDSDVYITDATVLDMRSMDFKSNSAVAWSNKSDFACANAFNNSIIPEDTFFPS”: the “soluble on expression in E. coli” value is “soluble”.

The record behind these values is the DeepSol protein solubility set.
